Data: the nanobody polyreactivity screen of Harvey et al. (2022)

Test: yeast display, Sf9 membrane polyspecificity reagent, FACS + sequencing; frameworks hold sequencing errors
Outline: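 Nanobodies came from a synthetic yeast display library in Saccharomyces cerevisiae BJ5465, induced with galactose for 36–48 hours and stained for 1 hour at 4 °C with 10% biotinylated, detergent-solubilized Sf9 membrane reagent. Cells were enriched on streptavidin microbeads and then FACS-sorted, with low and high (top ~1%) gates set on anti-HA fluorescence for expression and streptavidin fluorescence for reagent binding. Each polyreactivity label reflects the gate a clone came from. Genes were amplified by colony PCR, sequenced by MiSeq 2 × 250 and filtered by CDR length.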

| Sequence | polyreactivity (PSR sort gate) |
| --- | --- |
| QVQLVESGGGLVQAGGSLRLSCAASGSIIYRNAMGWYRQAPGKERELDAAISYSGTSTNYADSVKGRFTISRDNAKNTVYLQMNSLKPEDTAVYYCAARGFPHRRHSLYDYWGQGTHVTVSS | low polyreactivity |
| QVQLVESGGGLVQAGGSLRLSCAASGRTFSYYAMGWYRQAPGKERELVAVISVSGGSTYYADSVKGRFTISRDNAKNTVYLQMNSLKPEDTAVYYCNVDLYYGYDYWGQGTQVTVSS | low polyreactivity |
| QVQLVESGGGLVQAGGSLRLSCAASGSIFRKNAMGWYRQAPGKERELVAAITGTGRTTYADSEKGRFTISRDNAKNTVYLQMNSLKPEDTAVYYCAADVNYYQHRLYYWGQGTQVSVSS | low polyreactivity |
| QVQLVESGGGLVQAGGSLRLSCAASGSTFYPYTMGWYRQAPGKERELVAAITSGGNTNYADSVKGRFTISRDNAKNTVYLQMNSLKPEDTAVYYCNAEPEGTTGNYFPYDYWGQGTQVTVSS | low polyreactivity |
| QVQLVESGGGLVQAGGSLRLSCAASGRIFGENAMGWYRQAPGKERELVAAINSGGSTSYADSVKGRFTISRDNAKNTVYLQMNSLKPEDTAVYYCAADEIQGFYTHSFEYWGQGTQVTVSS | low polyreactivity |
| QVQHVESGGGLVQAGGSLRLSCAASGRTFRGYAMGWYRQAPGKERELVASISASGVRTYYADSVKGRFTISRDNAKNTVYLQMNSLKPEDTAVYYCNARHGGWYSVYYYWGQGTQVTVSS | high polyreactivity |
| QVQLVESGGGLVQAGGSLRLSCAASGRTFLTYAMGWYRQAPGKERELVAAISKRGGSTYYADSVKGRFTISRDNAKNTVYLQMNSLKPEDTAVYFCAADNGNHYGFWGQGTQVTVSS | high polyreactivity |
| QVQLVESGGGLVQAGGSLRLSCAASGGTFHRYAMGWYRQAPGKERELVAAISGSGASTYYADSVKGRFTISRDNAKNTVYLQMNSLKPEDTAVYYCNALWYYQIGPRGDHWGQGTQVTVSS | high polyreactivity |
| QVQLVESGGGLVQAGGSLRLSCAASGRTFVSNTMGWYRQAPGKERELVAAINYSVASTNYADSVKGRFTISRDNAKNTVYLQMNSLKPEDTAVYYCNRASAGWGQGTQVTVSS | low polyreactivity |
| QVQLVESGGGLVQASGSLRLSCAASVRIFFVNAMGWYRQEHGKERELVAAIPSSGGSTYYADSVKGRFTISRDNAKNTVYLQMNSLKPEDTAVYYCNARSWYPYDYWGQGTQVTVSS | low polyreactivity |
| QVQLVESGGGLVQAGGRLRLSCAASGFIFPLYAMGWYRQAPGKERELVAAIRASSGSTYYADSVKGRFTISRDNAKNSVYLQMNSLKPEDTAVYYCNARQYVWYPYEYWGQGTQVTVSS | high polyreactivity |
| QVQLVESGGGLVQAGGSLRLSCAPSGFSFRQYAMGWYRQAPGKERELVAAISSSGGRTYYADSVKGRCTISRDNAKNTVYLQMNSLKPEDSAVYYCNARAWLRGEYGEGYWGQGTQVTVSS | high polyreactivity |
| QVQLVESGGGLVQAGGSLRLSCAASGFIFPIYAMGWYRQEHGKERELVAGISGSGTSTYYADSVKGRFTISLDYAKNTVYLQMNSLKPVDNAVYYCNAKYPWGNYKSVSYDYWGQGTQVTVSS | high polyreactivity |
| QVQLVESGGGLVQAGGTLRLSCAASGSTISYYTMGWYRQAPGKERELVAAISRSGTRTYYADSVKGRFTISRDNPKNTVYLQMNSLKPEDTAFFYCAARSPFYSYTPGYEYWGQGTQVTVSS | high polyreactivity |
| QVQLVESGGGLVQAGGSLRLSCAASGRILAAYTMGWYRQAPGKERELVAAITRGGSRTNYADSVKGRFTISRDNAKNTVYLQMNSLKPEDTAVYYCAATWSAYRRWGYDYWGQGTQVTVSS | high polyreactivity |
| QVQLVESGGGLVQAGGSLRLSCAASGRLSVFYTMGWYRQAPGKERELVAVSRTSGGRTNYADSVKGRFTISRDNAKNTVYIEMNCLKPEDSGDYYGNAEFTYRWGYWQVYLLDYWGQGTQVTVSS | low polyreactivity |
| QVQLVESGGGLVQAGGSLRLSCAASGRTFPAYAMGWYRQAPGKERELVASIDLSGGSTSYADSVKGRFTISRDNAKNTVYLQMNSLKPEDTAVYYCAKKGRWSSASSGYYYWGQGTQVTVSS | low polyreactivity |
